Reference: paper PMC4640858

Target: QsdR (Quorum sensing degradation Regulation) wild type, transcriptional regulator of the TetR/FabR family (Rhodococcus erythropolis R138)
Experiment: SEC; gel filtration Superdex 200 26/60, buffer A (50 mM Tris-HCl pH 8, 150 mM NaCl); molecular mass estimate 44 kDa

stoichiometry N: 2
Substance: QsdR (Quorum sensing degradation Regulation) wild type, transcriptional regulator of the TetR/FabR family (natural protein)
